This is an account of results in patent publication US20050256058.

The test system of data set [1] is T1, PhPr-Leu-ALys-CH═CH-COOEt.
T1 sequence: LK

Data set [2] deals with T2, Cbz-Ala-Ala-AAsn-CH═CH-CONHCH2CH2Ph.
T2 sequence: AAN

In data set [3] the test system is T3, Cbz-Ala-Ala-AAsn-CH═CH-CON(Bzl)2.
T3 sequence: AAN

In data set [4] the test system is T4, Cbz-Ala-Ala-AAsn-CH═CH-COOEt.
T4 sequence: AAN

The test system of data set [5] is T5, Cbz-Ala-Ala-AAsn-CH═CH-CON(CH3)Bzl.
T5 sequence: AAN

Data set [6] concerns T6, PhPr-Leu-AOrn-CH═CH-COOEt.
T6 sequence: LX

The subject of data set [7] is T7, Cbz-Ala-Ala-AAsn-CH═CH-CO-indoline.
T7 sequence: AAN

As for Cathepsin B, the kobs/[I] in data set [1] was 9 M⁻¹ s⁻¹; in data set [2], “NI”; in data set [3], “NI”; in data set [4], 1 M⁻¹ s⁻¹; in data set [5] it was “NI”; in data set [6], 3 M⁻¹ s⁻¹. In addition, in data set [7], the “kobs/[I]” value is reported as “NI”.
Regarding Gingipain K, the “kobs/[I]” value in data set [2] is “NI”; in data set [3], 2 M⁻¹ s⁻¹; in data set [4] it was 6 M⁻¹ s⁻¹; in data set [5], 1 M⁻¹ s⁻¹; in data set [7] it was 1 M⁻¹ s⁻¹.
In the case of Trypsin, the kobs/[I] was 17 M⁻¹ s⁻¹ in data set [1] and “NI” in data set [6].
